This note sets out measurements from US20260028424A1 (GRANULAR THERAPEUTICS, published 2026).

One test deals with human c-Kit (SPR) (human, UniProt P10721 26-520, limits assumed). The test is described as follows: SPR, single-cycle kinetics, Human C-kit. A general note: SPR reads the build-up and loss of mass on a sensor chip optically.
In another test the target is cyno c-Kit (SPR) (cyno, UniProt F6V858 26-520 (rhesus entry)). The test is described as follows: SPR, single-cycle kinetics, Cynomolgus C-kit.
A further test addresses T1, c-Kit on KU812 cells (UniProt P10721 26-976, limits assumed).
T1 construct: whole, on cells; also called c-Kit receptor; CD117
The test is described as follows: flow cytometry on KU812 cells, which carry both c-Kit and CD203c (median fluorescence intensity); signal not separated by target. The method, then: All treatments were performed on cells seeded in T75 flasks at a seeding density of 0.3e6/ml. Cells were cultured in the presence of 80 ng/ml of SCF and treated with 20 ng/ml of IL3 24 hours prior to antibody staining. Following SCF/IL3 treatment, cells were harvested and stained with live dead stain (Zombie UV Biolegend 423108). Cells were then stained with a titration of anti-CD203c antibodies/bispecifics or respective isotype controls in a 5-fold dilution series starting at 50 μg/mL and detected with Anti human-Fc AF647 antibody (JIR 109-605-098). Samples were subsequently run on a Yeti analyzer, gating on 10K live cells. Subsequent analysis was performed using FlowJo software and data represented as MFI (median fluorescent intensity).
(In general: Flow cytometry measures light scatter and fluorescence of single cells or particles in a stream.)

Test [1] addresses T2, biotinylated cynomolgus CD203c (bio-cyCD203c, Icosagen) (cynomolgus monkey, UniProt A0A2K5TKP4 31-874, biotinylated (site not stated)).
T2 construct: Captured on a Biotin CAPture chip for SPR; also called cyno CD203c
T2 sequence: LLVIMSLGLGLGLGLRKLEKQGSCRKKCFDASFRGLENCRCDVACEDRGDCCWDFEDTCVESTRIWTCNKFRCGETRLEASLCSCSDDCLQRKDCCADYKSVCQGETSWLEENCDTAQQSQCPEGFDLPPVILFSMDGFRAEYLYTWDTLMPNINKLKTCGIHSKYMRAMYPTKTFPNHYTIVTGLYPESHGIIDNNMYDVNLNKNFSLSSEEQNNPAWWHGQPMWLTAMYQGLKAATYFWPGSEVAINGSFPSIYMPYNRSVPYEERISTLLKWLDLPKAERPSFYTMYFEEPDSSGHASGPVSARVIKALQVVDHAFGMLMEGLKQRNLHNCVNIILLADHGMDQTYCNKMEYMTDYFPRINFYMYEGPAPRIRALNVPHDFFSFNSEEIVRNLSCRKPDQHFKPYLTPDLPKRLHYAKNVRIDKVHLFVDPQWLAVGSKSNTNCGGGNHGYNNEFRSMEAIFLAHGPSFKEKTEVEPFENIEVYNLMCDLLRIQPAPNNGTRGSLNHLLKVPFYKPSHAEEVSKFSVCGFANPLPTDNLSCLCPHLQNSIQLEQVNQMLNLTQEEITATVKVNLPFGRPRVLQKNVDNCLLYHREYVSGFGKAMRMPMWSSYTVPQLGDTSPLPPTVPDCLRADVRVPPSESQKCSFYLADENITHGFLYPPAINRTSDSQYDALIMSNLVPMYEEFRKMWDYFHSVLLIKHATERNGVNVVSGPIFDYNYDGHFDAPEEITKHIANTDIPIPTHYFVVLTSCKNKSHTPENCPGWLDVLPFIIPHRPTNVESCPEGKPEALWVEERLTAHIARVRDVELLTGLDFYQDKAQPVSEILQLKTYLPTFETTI
The test is described as follows: SPR, single-cycle protocol, Bio-cyCD203c; table gives Rmax, Chi2 and KD only.

Test [2] deals with T3, biotinylated human CD203c (bio-huCD203c, Acro, Cat. nr. H52H4) (human, UniProt O14638 49-875, limits assumed, biotinylated (site not stated)).
T3 construct: Captured on a Biotin CAPture chip for SPR
T3 sequence (looked up): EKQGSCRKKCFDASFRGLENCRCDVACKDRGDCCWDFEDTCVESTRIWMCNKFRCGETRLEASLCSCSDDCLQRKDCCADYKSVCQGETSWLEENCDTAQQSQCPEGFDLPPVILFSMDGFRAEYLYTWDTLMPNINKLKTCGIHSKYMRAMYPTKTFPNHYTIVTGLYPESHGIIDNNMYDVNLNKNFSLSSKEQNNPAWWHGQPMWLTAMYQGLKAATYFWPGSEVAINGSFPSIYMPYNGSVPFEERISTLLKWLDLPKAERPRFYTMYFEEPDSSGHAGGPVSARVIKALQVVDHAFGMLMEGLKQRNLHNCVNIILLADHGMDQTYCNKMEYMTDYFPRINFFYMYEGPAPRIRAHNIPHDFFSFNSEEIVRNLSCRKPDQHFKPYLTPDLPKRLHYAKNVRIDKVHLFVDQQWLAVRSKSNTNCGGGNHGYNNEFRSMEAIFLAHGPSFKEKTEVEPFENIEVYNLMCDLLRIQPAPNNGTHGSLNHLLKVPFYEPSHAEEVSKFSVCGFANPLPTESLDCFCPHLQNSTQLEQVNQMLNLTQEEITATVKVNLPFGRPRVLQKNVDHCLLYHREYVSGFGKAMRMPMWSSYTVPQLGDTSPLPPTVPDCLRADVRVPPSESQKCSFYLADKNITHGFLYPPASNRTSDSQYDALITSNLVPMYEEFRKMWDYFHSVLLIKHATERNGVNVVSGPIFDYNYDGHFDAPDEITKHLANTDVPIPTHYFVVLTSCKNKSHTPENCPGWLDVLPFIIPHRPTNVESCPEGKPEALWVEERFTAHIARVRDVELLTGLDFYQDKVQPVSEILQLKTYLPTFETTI
In words: SPR, single-cycle protocol, Bio-huCD203c; table gives Rmax, Chi2 and KD only.

Chain of cyno c-Kit (SPR) (chain, as listed by the source): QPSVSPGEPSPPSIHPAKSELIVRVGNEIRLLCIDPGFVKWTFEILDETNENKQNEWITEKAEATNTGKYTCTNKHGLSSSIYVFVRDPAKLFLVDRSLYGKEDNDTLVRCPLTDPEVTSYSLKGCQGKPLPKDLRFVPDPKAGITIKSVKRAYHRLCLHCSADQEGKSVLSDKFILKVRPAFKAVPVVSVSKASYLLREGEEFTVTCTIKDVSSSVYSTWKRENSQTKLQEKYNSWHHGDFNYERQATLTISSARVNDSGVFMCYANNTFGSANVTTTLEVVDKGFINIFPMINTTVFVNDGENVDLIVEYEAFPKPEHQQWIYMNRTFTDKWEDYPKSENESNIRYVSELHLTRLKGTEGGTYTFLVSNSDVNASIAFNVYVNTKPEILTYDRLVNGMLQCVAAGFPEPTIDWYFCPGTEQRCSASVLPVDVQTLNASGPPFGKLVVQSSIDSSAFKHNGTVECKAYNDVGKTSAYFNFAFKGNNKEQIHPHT
Chain of human c-Kit (SPR) (P10721 26-520 limits assumed): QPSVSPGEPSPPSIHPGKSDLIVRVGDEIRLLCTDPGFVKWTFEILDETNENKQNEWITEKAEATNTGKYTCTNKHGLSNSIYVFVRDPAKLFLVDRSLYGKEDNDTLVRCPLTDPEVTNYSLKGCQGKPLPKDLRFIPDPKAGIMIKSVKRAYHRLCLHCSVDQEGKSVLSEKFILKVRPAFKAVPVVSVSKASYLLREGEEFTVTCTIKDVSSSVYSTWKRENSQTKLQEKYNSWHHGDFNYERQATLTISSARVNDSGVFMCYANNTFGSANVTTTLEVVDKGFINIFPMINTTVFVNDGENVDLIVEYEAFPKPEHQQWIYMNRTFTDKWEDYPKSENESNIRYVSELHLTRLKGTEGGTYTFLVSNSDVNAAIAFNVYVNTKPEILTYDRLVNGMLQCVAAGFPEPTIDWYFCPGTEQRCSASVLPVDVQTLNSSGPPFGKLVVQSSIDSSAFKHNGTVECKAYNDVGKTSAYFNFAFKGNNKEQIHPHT
T1 sequence (P10721 26-976 limits assumed): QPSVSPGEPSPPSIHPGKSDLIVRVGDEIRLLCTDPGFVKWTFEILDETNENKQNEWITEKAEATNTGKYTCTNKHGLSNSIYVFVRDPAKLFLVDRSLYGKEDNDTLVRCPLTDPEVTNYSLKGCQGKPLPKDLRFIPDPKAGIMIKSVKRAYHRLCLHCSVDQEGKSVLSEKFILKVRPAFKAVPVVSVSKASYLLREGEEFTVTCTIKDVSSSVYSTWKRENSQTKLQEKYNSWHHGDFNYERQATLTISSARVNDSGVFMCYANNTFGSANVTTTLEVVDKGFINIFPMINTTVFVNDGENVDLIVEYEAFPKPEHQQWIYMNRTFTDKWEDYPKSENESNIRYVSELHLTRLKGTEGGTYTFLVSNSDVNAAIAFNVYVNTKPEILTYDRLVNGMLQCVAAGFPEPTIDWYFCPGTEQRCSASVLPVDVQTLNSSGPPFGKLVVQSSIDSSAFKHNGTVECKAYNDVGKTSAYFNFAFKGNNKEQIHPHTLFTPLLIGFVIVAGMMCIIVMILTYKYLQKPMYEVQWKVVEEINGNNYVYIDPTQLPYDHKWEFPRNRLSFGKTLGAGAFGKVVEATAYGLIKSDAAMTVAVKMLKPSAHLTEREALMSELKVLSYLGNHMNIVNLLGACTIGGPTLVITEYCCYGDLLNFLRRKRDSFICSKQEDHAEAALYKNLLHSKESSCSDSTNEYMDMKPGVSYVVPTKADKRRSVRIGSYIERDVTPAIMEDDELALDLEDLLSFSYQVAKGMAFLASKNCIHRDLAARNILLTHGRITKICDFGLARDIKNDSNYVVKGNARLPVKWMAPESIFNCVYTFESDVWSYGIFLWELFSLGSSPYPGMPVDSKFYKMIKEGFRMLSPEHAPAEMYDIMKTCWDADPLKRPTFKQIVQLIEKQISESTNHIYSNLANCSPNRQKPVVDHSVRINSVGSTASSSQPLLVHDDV

B1: MH1/F6.12 bispecific (parental, before pI engineering) (bispecific antibody, V domains shown)
VH 1: QVQLVQSGAEVKKPGASVKVSCKASGYTFTDYYMNWVRQAPGQGLEWMGRIYPGSGNTYYAQKFQGRVTMTRDTSTSTVYMELSSLRSEDTAVYYCARGVYYYDYWGQGTLVTVSS
VH 2: EVQLVQSGAEVKKPGESLKISCKGSGYRFASNWIGWVRQMPGKGLEWMGEIYPGDSNTRYSPSFQGQVTISADKSISTAYLQWSSLKASDTAMYYCARKDYYYGIMDVWGQGTTVTVSS
VL: DIQMTQSPSSLSASVGDRVTITCRASQGIRTNLAWFQQKPGKAPKSLIYAASSLQSGVPSRFSGSGSGTDFTLTISSLQPEDFATYYCQQYNSYPRTFGGGTKVEIK
notes: Knob-in-hole IgG1null bispecific with human Ckappa; also called parental bispecific MH1/F6.12
For orientation: Kd means the equilibrium constant for the complex coming apart. A higher Kd goes with weaker binding. In general, koff refers to the first-order rate constant of dissociation. Low values mean slow dissociation, high ones fast dissociation. Usually kon stands for the rate constant with which the complex forms. One may read the EC50 as the concentration giving half of the maximal effect. The low end stands for an effect from little substance, the high end for a need for much substance. In the test with human c-Kit (SPR), B1 had a Kd of 45.1 nM, a koff of 0.00978 s⁻¹ and an association rate constant (kon) of 217000 M⁻¹ s⁻¹. In the test with cyno c-Kit (SPR), this molecule displayed a Kd of 52.7 nM, an off-rate constant (koff) of 0.0159 s⁻¹ and a kon of 301000 M⁻¹ s⁻¹. This molecule displayed an EC50 in the test with c-Kit on KU812 cells of 0.548 nM.

B2: FJ2156_MH1_A x F6_12C huIgG1 KIH (bispecific antibody, V domains shown)
VH 1: EVQLVQSGAEVKKPGASVKVSCKASGYTFTDYYMNWVRQAPGQGLEWMGRIYPGSGNTYYAQKFQDRVTMTRDTSTSTVYMELSSLRSEDTAVYYCARGVYYYDYWGQGTLVTVSS
VH 2: QVQLVQSGAEVKKPGESLKISCKGSGYRFASNWIGWVRQMPGKGLEWMGEIYPGDSNTRYRPSFQGQVTISADKSISTAYLQWSSLKASDTAMYYCARKDYYYGIMDVWGQGTTVTVSS
VL: DIQMTQSPSSLSASVGDRVTITCRASQGIRTNLAWFQQKPGKAPKSLIYAASSLQSGVPSRFSGSGSGTDFTLTISSLQPEDFATYYCQQYNSYPRTFGGGTKVEIK
notes: also called MH1_A/F6.12_C
Take B2: the Kd was found to be 86.1 nM in the test with human c-Kit (SPR), 91.3 nM with cyno c-Kit (SPR), 51.8 nM in test [1] and 84.8 nM in test [2]. The values for the koff with human c-Kit (SPR) and with cyno c-Kit (SPR) were 0.0171 s⁻¹ and 0.0272 s⁻¹, respectively. In addition, the kon with human c-Kit (SPR) was determined as 199000 M⁻¹ s⁻¹; with cyno c-Kit (SPR) it was 297000 M⁻¹ s⁻¹.

B3: FJ2156_MH1_A x F6_12B huIgG1 KIH (bispecific antibody, V domains shown)
VH 1: EVQLVQSGAEVKKPGASVKVSCKASGYTFTDYYMNWVRQAPGQGLEWMGRIYPGSGNTYYAQKFQDRVTMTRDTSTSTVYMELSSLRSEDTAVYYCARGVYYYDYWGQGTLVTVSS
VH 2: QVQLVQSGAEVKKPGESLKISCKGSGYRFASNWIGWVRQMPGKGLQWMGEIYPGDSNTRYSPSFQGQVTISADKSISTAYLQWSSLKASDTAMYYCARKDYYYGIMDVWGQGTTVTVSS
VL: DIQMTQSPSSLSASVGDRVTITCRASQGIRTNLAWFQQKPGKAPKSLIYAASSLQSGVPSRFSGSGSGTDFTLTISSLQPEDFATYYCQQYNSYPRTFGGGTKVEIK
notes: also called MH1_A/F6.12_B
Turning to B3, the Kd came to 82.7 nM in the test with human c-Kit (SPR), 95.5 nM with cyno c-Kit (SPR), 68.2 nM in test [1] and 98.5 nM in test [2]. Moreover, the koff with human c-Kit (SPR) came out at 0.0166 s⁻¹; with cyno c-Kit (SPR) it was 0.0277 s⁻¹. The kon in the test with human c-Kit (SPR) amounted to 201000 M⁻¹ s⁻¹; with cyno c-Kit (SPR) it was 291000 M⁻¹ s⁻¹.
